In this test the target is ectodomain of the S protein of SARS-CoV-2 B.1.1.7 (S-UK) (SARS-CoV-2) (UniProt P0DTC2). Nature of the test: cryo-EM structure.

“ectodomain of the S protein of SARS-CoV-2 B.1.1.7 (S-UK) (from UniProt P0DTC2 14-1208) (domain or fragment)” showed a stoichiometry N of 3 protomers.

As usually defined, the stoichiometry N is the number of molecules, sites or subunits per partner or assembly.
